Experimental data taken from the supplement of paper PMC10724198.
± gives the standard deviation of the averaged measurements.

The sequences below were run on Saccharomyces cerevisiae (assay: protein stability index of tFT-peptide fusion (C-terminal peptide) (PSI (0-1 scale)); higher = more stable (slower turnover)). Details: genetic background: wild type; temperature: 30 C.
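Further: PSI is a weighted mean of sequencing reads over stability bins, variants kept only with over 10 reads, mCherry proximal and sfGFP distal, peptide attached via GGGS linker.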

Sequence | protein stability index
LIICRSFLCKVR | 0.3 ± 0.01
LILIVVVAGSVG | 0.269 ± 0.038
LIMIRLLYLRLI | 0.102 ± 0.035
LINHSWLLLSVL | 0.325 ± 0.035
LLCSLGFRFSLF | 0.377 ± 0.034
LLFGCLIRIGCS | 0.35 ± 0.051
LLILSVRPFVFV | 0.43 ± 0.0067
LLLALLFWPCPI | 0.473 ± 0.02
LLLIGISFLIFY | 0.352 ± 0.05
LLLTAIRVLRMH | 0.169 ± 0.056
LLLVCYSTFIVA | 0.313 ± 0.026
LLLVPLLAFSAS | 0.521 ± 0.035
LLMFWLSIWFWG | 0.32 ± 0.035
LLPYSLSLALRA | 0.412 ± 0.0096
LLSFSQLGYFVL | 0.212 ± 0.04
LLSGHFRLLLAF | 0.136 ± 0.029
LLVCLGYFLFLG | 0.403 ± 0.0091
LNVEEGGGLENV | 0.536 ± 0.1
LPHPLPFCFSLY | 0.515 ± 0.062
LPLLLFYLPIIW | 0.464 ± 0.03

Sequence | protein stability index
LPPFLSSLPSSP | 0.704 ± 0.019
LPPSPPAPLSRL | 0.804 ± 0.066
LQIKSFTSQRLA | 0.158 ± 0.021
LRFMLLSFLVIL | 0.234 ± 0.083
LRFVCALGYCVW | 0.471 ± 0.0098
LRNVPCLVFFWV | 0.462 ± 0.048
LRSVLGWGLFLA | 0.325 ± 0.018
LSCFCLFCLSFC | 0.0626 ± 0.033
LSFLALLLFFRI | 0.4764 ± 0.0023
LSGIILGWSVSG | 0.676 ± 0.034
LSLVYFAALFSF | 0.4709 ± 0.0037
LSTPPLLPTPPS | 0.7113 ± 0.0049
LSVMKLFVMVGP | 0.401 ± 0.039
LSVSLFPIRYVG | 0.396 ± 0.025
LVVIYPLLSSPV | 0.4643 ± 0.00088
LWFFVGFAVYGG | 0.455 ± 0.0066
LWFRGGYLFFVV | 0.265 ± 0.043
LWVTRVYCLLVC | 0.0818 ± 0.0069
LYIQWVSRWSVQ | 0.504 ± 0.025
LYLCLVSPVVVL | 0.296 ± 0.029

Sequence | protein stability index
LYLGCVLFVLFR | 0.234 ± 0.054
LYSVLWFCFPLV | 0.466 ± 0.028
LYVLNILSFVCV | 0.1688 ± 0.00051
MALAVRVVKCGA | 0.384 ± 0.028
MCRMYELYVTSS | 0.467 ± 0.01
MIILGFILYFFW | 0.422 ± 0.033
NAPSAIQKNKKC | 0.433 ± 0.081
NDSSWEVSLMVG | 0.363 ± 0.076
NECLSSKWLRIC | 0.185 ± 0.0041
NFKELMEKSKYR | 0.719 ± 0.018
NLTAIIYTLVVD | 0.31 ± 0.015
NQIIRLIVGLLC | 0.291 ± 0.016
PCLLRYLVHPFP | 0.75445 ± 0.00044
PCPAPRPPSPSA | 0.435 ± 0.03
PDCRPPLVRCLL | 0.796 ± 0.03
PFALTPPPSPRS | 0.426 ± 0.043
PFFCFLLFCFSL | 0.455 ± 0.037
PFFLLAGITVAC | 0.273 ± 0.016
PFLCLPFLLVSR | 0.41 ± 0.034
